± gives the standard deviation of the averaged measurements.
Test system: ATP
Test: switch fluorescence ratio, 500 uM ATP over buffer (Cy3 cluster intensity, sum of 5 cycles each) (fold (ratio)); higher = stronger signal-on switching upon ATP binding; sequences stand for … in TCGTCGGCAGCGTCAGATGTGTATAAGAGACAGTTTTTTTTTTTTTTTTTTTTTTTTT…TC
Conditions: aptamer strand: ATP DNA aptamer (quencher-CACCTGGGGGAGTATTGCGGAGGAAGG + anchor), 100 nM annealed; ATP concentration: 500 uM
In short: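 For every switch-domain sequence, the fluorescence ratio is the mean of per-cluster values, each being summed target-cycle Cy3 intensity over summed buffer-cycle Cy3 intensity. Clusters outside 100-1000 RFU were excluded. On a modified Illumina MiSeq flow-cell, the Cy3-labelled switching-strand clusters were annealed to 100 nM quencher-labelled ATP aptamer, imaged in selection buffer and then after 15 min with 500 uM ATP at 22 °C. Five such cycles were run, with NaOH stripping and re-annealing between them.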
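Further: ATP exposure 15 min at 22 °C before imaging.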

## GAGAAATGGG
  switch fluorescence ratio: 1.07 ± 0.038

## GGGTAAAGGG
  switch fluorescence ratio: 1 ± 0.045

## TAGGGTGTCA
  switch fluorescence ratio: 1.03 ± 0.047

## TTGAAACATT
  switch fluorescence ratio: 1.01 ± 0.024

## CAAGAAGAGT
  switch fluorescence ratio: 1.01 ± 0.04

## CTAGGCTGTA
  switch fluorescence ratio: 1 ± 0.021

## TACATTGACG
  switch fluorescence ratio: 1.025 ± 0.0089

## TGTGTAGTTG
  switch fluorescence ratio: 0.9821 ± 0.0042

## GGGGCGCGCC
  switch fluorescence ratio: 1.022 ± 0.0077

## TTACGTGTGA
  switch fluorescence ratio: 1.05 ± 0.073

## ACGGGGGGTG
  switch fluorescence ratio: 1.01 ± 0.077

## ACGGGGCGTA
  switch fluorescence ratio: 0.98581 ± 0.00064

## TCCTTTGGAT
  switch fluorescence ratio: 1.05 ± 0.049

## TATGAGGTCT
  switch fluorescence ratio: 1.02 ± 0.032

## TTCGTGGGGT
  switch fluorescence ratio: 1.03 ± 0.061

## GACTCCAGGC
  switch fluorescence ratio: 1.22 ± 0.069

## GAAAAAGGGG
  switch fluorescence ratio: 1.01 ± 0.019

## CTGGGTTTAA
  switch fluorescence ratio: 1.02 ± 0.013

## GTTTTACGTC
  switch fluorescence ratio: 0.981 ± 0.047

## CTTATTGGGT
  switch fluorescence ratio: 0.993 ± 0.011

## GGGAATTCTG
  switch fluorescence ratio: 0.985 ± 0.023

## TTTCTGTTCG
  switch fluorescence ratio: 0.989 ± 0.024

## AGGTAAGCTA
  switch fluorescence ratio: 1.025 ± 0.005

## GGGAAATAGG
  switch fluorescence ratio: 1.01 ± 0.023

## ATGTGGATTT
  switch fluorescence ratio: 0.988 ± 0.023

## GGGCATGGCT
  switch fluorescence ratio: 0.99 ± 0.016

## ACTACTTTCG
  switch fluorescence ratio: 1.03 ± 0.034

## TGGGTATTCT
  switch fluorescence ratio: 0.945 ± 0.024

## GGCAATTTTT
  switch fluorescence ratio: 0.992 ± 0.049

## TGCTGGAGCT
  switch fluorescence ratio: 1.06 ± 0.022

## CGAAGAGGGG
  switch fluorescence ratio: 0.995 ± 0.016

## GGGAGGAAAA
  switch fluorescence ratio: 1.02 ± 0.016

## GGTTTTTCGC
  switch fluorescence ratio: 1.028 ± 0.0029

## ATTGGACGTT
  switch fluorescence ratio: 0.988 ± 0.016

## GTGGTCAGGC
  switch fluorescence ratio: 0.975 ± 0.022

## GGGTATAGTC
  switch fluorescence ratio: 1.02 ± 0.074

## AGGGGTAGCG
  switch fluorescence ratio: 0.9539 ± 0.0073

## ATGTTTCAGT
  switch fluorescence ratio: 0.9982 ± 0.0021

## AGATGAATGC
  switch fluorescence ratio: 0.989 ± 0.011

## TTTTTTTATA
  switch fluorescence ratio: 0.991 ± 0.024

## GGTGTGGTGA
  switch fluorescence ratio: 1.06 ± 0.049

## CTATAGTCAA
  switch fluorescence ratio: 1.38 ± 0.026

## CGTCATATGC
  switch fluorescence ratio: 1.29 ± 0.073

## GGGGATTCT
  switch fluorescence ratio: 0.9936 ± 0.0094

## GGTGGGGGTC
  switch fluorescence ratio: 1.02 ± 0.022

## TGACTGTATT
  switch fluorescence ratio: 1.14 ± 0.042

## TTATGTGGGG
  switch fluorescence ratio: 0.993 ± 0.033

## GTGATGCAGG
  switch fluorescence ratio: 0.98 ± 0.026

## ATTAATTGGG
  switch fluorescence ratio: 1.01 ± 0.036

## GAGATGGTTT
  switch fluorescence ratio: 0.997 ± 0.024

## AAGTACCCGG
  switch fluorescence ratio: 1.14 ± 0.026

## GACGTGGTAG
  switch fluorescence ratio: 1.03 ± 0.016

## GTGGTGTCGT
  switch fluorescence ratio: 0.984 ± 0.016

## TTGTGTTGCG
  switch fluorescence ratio: 1.03 ± 0.051

## CAATAGGGCA
  switch fluorescence ratio: 0.943 ± 0.024

## TTTACCGCTC
  switch fluorescence ratio: 1.26 ± 0.073

## GTTCGAGAGC
  switch fluorescence ratio: 0.995 ± 0.057

## CGTAGCGTCC
  switch fluorescence ratio: 1.13 ± 0.019

## GGGGTCAGCG
  switch fluorescence ratio: 0.974 ± 0.012

## ATATTGCTCG
  switch fluorescence ratio: 1.05 ± 0.06

## ATCATTTAGT
  switch fluorescence ratio: 0.982 ± 0.027

## AGATTTAGAG
  switch fluorescence ratio: 1.011 ± 0.0032

## ATGACTTTGG
  switch fluorescence ratio: 0.977 ± 0.028

## TTTCATATGG
  switch fluorescence ratio: 0.994 ± 0.024

## CAGTGCATTG
  switch fluorescence ratio: 1.01 ± 0.023

## AAACCAGCCC
  switch fluorescence ratio: 1.21 ± 0.21

## CAGGTAGGTT
  switch fluorescence ratio: 1.02 ± 0.068

## TATTAGAGGT
  switch fluorescence ratio: 0.997 ± 0.019

## CTTGAAAGGG
  switch fluorescence ratio: 0.997 ± 0.02

## GTCGTCGGCG
  switch fluorescence ratio: 1.02 ± 0.025

## GGGGTTTTAG
  switch fluorescence ratio: 1.01 ± 0.018

## ATTCGTGTTT
  switch fluorescence ratio: 0.978 ± 0.017

## CTAAGGGGAT
  switch fluorescence ratio: 1.09 ± 0.15

## GGGTGGGTA
  switch fluorescence ratio: 1.03 ± 0.03

## AAGGTCTTTG
  switch fluorescence ratio: 1.01 ± 0.043

## TGGTATGTGT
  switch fluorescence ratio: 1.003 ± 0.0057

## ATGGATTTGT
  switch fluorescence ratio: 1.01 ± 0.021

## TGATTTTAGA
  switch fluorescence ratio: 0.974 ± 0.052

## GAACTAAGCT
  switch fluorescence ratio: 1.01 ± 0.028

## ATGGCGACGA
  switch fluorescence ratio: 1.027 ± 0.0095

## CTTGACAAGG
  switch fluorescence ratio: 0.982 ± 0.014

## GGGGACAGTT
  switch fluorescence ratio: 1.02 ± 0.017

## TAGAAATGGT
  switch fluorescence ratio: 0.994 ± 0.041

## TGGGGCACAT
  switch fluorescence ratio: 1.02 ± 0.022

## TAGAAAGTGC
  switch fluorescence ratio: 1.02 ± 0.099

## TTTAGTCGCA
  switch fluorescence ratio: 0.998 ± 0.035

## TAGCCTAGTT
  switch fluorescence ratio: 0.963 ± 0.022

## AAAAATTATT
  switch fluorescence ratio: 1.006 ± 0.0065

## CGTGATGGGG
  switch fluorescence ratio: 1.04 ± 0.071

## CAAATTTGG
  switch fluorescence ratio: 1.05 ± 0.031

## GGAGACAGGA
  switch fluorescence ratio: 1.04 ± 0.012

## TGGGTCAGTC
  switch fluorescence ratio: 1.05 ± 0.021

## AGCCAGGTGG
  switch fluorescence ratio: 1.27 ± 0.14

## AGAAAGGCGG
  switch fluorescence ratio: 0.9715 ± 0.0027

## AGGGACCTTA
  switch fluorescence ratio: 1.04 ± 0.05

## ATTATTTTTT
  switch fluorescence ratio: 1.02 ± 0.046

## TGACGTAAGG
  switch fluorescence ratio: 0.994 ± 0.026

## GGTGGGGT
  switch fluorescence ratio: 1.01 ± 0.0055

## CAAGGAAACG
  switch fluorescence ratio: 1.002 ± 0.0034

## CGTTTTTCCG
  switch fluorescence ratio: 1.08 ± 0.032

## GTTGCCGAGT
  switch fluorescence ratio: 1.024 ± 0.0048

## AGGGGAGTAT
  switch fluorescence ratio: 1.45 ± 0.66

## TCGAGGGGGT
  switch fluorescence ratio: 0.986 ± 0.054

## ACTGTCGCCA
  switch fluorescence ratio: 1.023 ± 0.0059

## TTTGGAACAT
  switch fluorescence ratio: 1.01 ± 0.042

## TCGGGGATAT
  switch fluorescence ratio: 3.05 ± 2.9

## TGGGAATGAA
  switch fluorescence ratio: 0.992 ± 0.021

## ATGTGATGCT
  switch fluorescence ratio: 1.012 ± 0.0044

## TTTGGTACCC
  switch fluorescence ratio: 1.01 ± 0.029

## GCTCGGTTAG
  switch fluorescence ratio: 1.01 ± 0.018

## GTGATGCTGC
  switch fluorescence ratio: 1.07 ± 0.015

## AGACAGGGGG
  switch fluorescence ratio: 1.11 ± 0.2

## GCTATCTGCC
  switch fluorescence ratio: 1.075 ± 0.01

## TCAAGGCGGA
  switch fluorescence ratio: 0.99 ± 0.012

## CGCGTTTCCC
  switch fluorescence ratio: 1.27 ± 0.038

## GCATGCTGTC
  switch fluorescence ratio: 0.983 ± 0.019

## TTGTGAATTA
  switch fluorescence ratio: 0.982 ± 0.022

## AGCCTGTTTT
  switch fluorescence ratio: 0.9861 ± 0.0011

## TAAGAGGGTG
  switch fluorescence ratio: 1.11 ± 0.016

## CGCCCCTGAA
  switch fluorescence ratio: 0.997 ± 0.017

## CTGTGGGTTT
  switch fluorescence ratio: 1.01 ± 0.026

## TTTTTTCCGA
  switch fluorescence ratio: 1.02 ± 0.046

## GAAAGATAAG
  switch fluorescence ratio: 0.985 ± 0.014

## TCCATTTTTT
  switch fluorescence ratio: 0.992 ± 0.035

## GGTTTTTCGA
  switch fluorescence ratio: 0.983 ± 0.034

## TGGGGGCGCG
  switch fluorescence ratio: 0.984 ± 0.042

## TCAGGGGGGT
  switch fluorescence ratio: 1.11 ± 0.3

## TTGTAGGGGT
  switch fluorescence ratio: 1.02 ± 0.052

## GAACGAGGGT
  switch fluorescence ratio: 0.9676 ± 0.0013

## CTTGCATTTT
  switch fluorescence ratio: 1.04 ± 0.031

## GGTTGGTTGT
  switch fluorescence ratio: 1.15 ± 0.21

## AATGGGGAAT
  switch fluorescence ratio: 1.25 ± 0.4

## AGTTGAACCC
  switch fluorescence ratio: 0.9872 ± 0.0016

## CGCCCCGCTG
  switch fluorescence ratio: 1.13 ± 0.071

## CTTTCGTCTG
  switch fluorescence ratio: 1.01 ± 0.035

## TATGGGCAGC
  switch fluorescence ratio: 1.03 ± 0.018

## TTTCCGCGGA
  switch fluorescence ratio: 0.97 ± 0.024

## AGGCGAGGGA
  switch fluorescence ratio: 1.02 ± 0.0049

## TCGCCGTATG
  switch fluorescence ratio: 0.999 ± 0.018

## GCATCTAAGC
  switch fluorescence ratio: 1.06 ± 0.043

## TGGGGCCCCG
  switch fluorescence ratio: 1 ± 0.013

## TAGTGGTGGG
  switch fluorescence ratio: 0.9844 ± 0.0089

## TTAAAATGTC
  switch fluorescence ratio: 0.992 ± 0.014

## GCTGGGATTG
  switch fluorescence ratio: 1.01 ± 0.035

## TTGGGTGCAG
  switch fluorescence ratio: 1.016 ± 0.0075

## AACGTACTTG
  switch fluorescence ratio: 1.54 ± 0.044

## TGCAACTTTT
  switch fluorescence ratio: 1.01 ± 0.019

## AGCAGTGGAC
  switch fluorescence ratio: 1.23 ± 0.016

## GAGAGATCG
  switch fluorescence ratio: 0.982 ± 0.021

## GTTTTAAGGC
  switch fluorescence ratio: 1.01 ± 0.058

## TATAGGGTTT
  switch fluorescence ratio: 1.07 ± 0.12

## ATCTTGTGTC
  switch fluorescence ratio: 0.945 ± 0.02

## CGTGTAGGAG
  switch fluorescence ratio: 0.99262 ± 0.00056

## ACCCGCCAGC
  switch fluorescence ratio: 3.96 ± 1.6

## TAATAAGTA
  switch fluorescence ratio: 0.97 ± 0.012

## TAAGTGCAT
  switch fluorescence ratio: 1.0026 ± 4.4e-05

## GGATTTATAA
  switch fluorescence ratio: 0.9961 ± 0.0011

From the supplement of paper PMC10126150
